Marks after values point to notes of the source that are not given here.
Legend:
[1] = tested on: retinal blood vessels in OIR mice; test: Retinal blood vessels in OIR mice; format: in vivo; conditions: dose 64 μg, injected into the vitreous body on day 13, evaluated on day 17
Description: Establishment of the OIR model: young mice and their mothers were exposed to 75% hyperoxic environment from day 7 to day 12 after birth of C57/B16 mice so that capillaries in the central retina rapidly disappeared. On day 12, the mice were returned to indoor air and the retinal blood vessels exposed to hyperoxia rapidly disappeared, which caused extensive abnormal neovascularization, and the central part of the retina remained largely avascular for a long time. After the blood vessels disappeared completely, the fusion protein (administration group, the doses of fusion protein I, protein II, protein III, protein IV, and protein V were all 64 μg) or physiological saline (negative group) was injected into the vitreous body on day 13. Retinal vessels were evaluated on day 17 (labeled as unclosed vessels, […] of Texas Red-labeled tomato lectin was injected into the left ventricle and cycled for 5 minutes).

[2] = tested on: human umbilical vein endothelial cells (HUVEC); test: Three-dimensional transwell assay, migration of HUVEC; format: cell-based
Protocol: Human umbilical vein endothelial cells (HUVECs) were cultured with endothelial cell culture fluid containing 5% fetal bovine serum and 1×ECGS in a 5% CO2 incubator at 37° C., to a confluence of 90% or more, and then inhibitory effects of fusion protein I, protein II, protein III, protein IV, and protein V on migration of endothelial cells were detected by transwell assay, in which only endothelial cells HUVEC of passage 2 to 8 were used, and the specific operation was as follows.
(1) 10 mg/mL Matrigel was diluted with a DMEM medium at a ratio of 1:4, coated on a transwell chamber membrane, and air-dried at room temperature.
(2) HUVEC cells cultured to logarithmic phase were digested with 0.2% EDTA, collected, washed twice with PBS, followed by resuspended in an endothelial cell culture liquid containing 0.1% BSA, counted under a microscope, and the cell concentration was adjusted to 1×10^5 cells/mL;
(3) Test solutions for each group were formulated and diluted to 100 μL with a cell culture liquid containing 0.1% BSA;
Groups were divided as follows:
Blank control group: a cell culture liquid containing no drug;
Endostar group: 5 mg/mL Endostar solution diluted to a predetermined concentration with a cell culture liquid containing no drug; […]
(4) The cells were inoculated into a transwell chamber at 100 μL per well, and test solutions for each group were added to the chamber. To a 24-well plate, 0.6 mL of endothelial cell culture liquid containing 5% fetal bovine serum and 1×ECGS was added to stimulate cell migration, and incubated at 5% CO2 for 24 h at 37° C.
(5) The culture liquid in the well was discarded. The cells were fixed with 90% alcohol at room temperature for 30 min, stained with 0.1% crystal violet for 10 min at room temperature, and rinsed with water. Un-migrated cells in the upper layer were gently wiped off by a cotton swab. The observation was carried out under microscope and four fields of view were selected for taking photos and counting. The migration inhibition (MI) was calculated according to the formula: […]
where Ntest is the migration cell number in the test group, and Ncontrol is the migration cell number in the blank control group.
The test was repeated 3 times independently. The results obtained from the test were calculated as mean±SD, and statistical t-test was performed. P<0.05 was considered as a significant difference, and P<0.01 was considered as an extremely significant difference.

[3] = tested on: gastric cancer cell MGC-803; test: MTT assay, proliferation of gastric cancer cell MGC-803; format: cell-based
Protocol: The MTT assay was used to detect the inhibitory effect of the integrin blocker fusion protein obtained in Example 1 on the proliferation of various tumor cells, including melanoma cell B16F10, gastric cancer cell MGC-803, lung cancer cell A549, liver cancer cell Hep-G2, breast cancer cell MDA-MB-231, colon cancer cell HCT-116, human glioma U87, and cervical cancer cell Hela.
The tumor cells were cultured in a 5% CO2 incubator at 37° C. to a density of 90% or more, and collected by trypsinization. The cells were resuspended in the culture liquid and counted under a microscope. The cell concentration was adjusted to 3.0×10^4 cells/mL. The cell suspension was inoculated into a 96-well plate at 100 μL per well and cultured overnight in a 5% CO2 incubator at 37° C. […] After the cells were fully adhered, each dilution was added to a 96-well plate at 100 μL per well, respectively. […] 20 μL of 5 mg/mL MTT was added to each well of a 96-well plate, and incubation was continued for 4 hours. The medium was aspirated and 100 μL of DMSO per well were added to dissolve. The absorbance was measured at 570 nm with a microplate reader with a reference wavelength of 630 nm, and the proliferation inhibition (PI) was calculated. The formula is as follows: […]
where Ntest is the OD value of the test group and Ncontrol is the OD value of the blank control group.
The test was repeated 5 times independently. The results obtained from the test were calculated as mean±SD, and statistical t-test was performed. P<0.05 was considered as a significant difference, and P<0.01 was considered as an extremely significant difference.

B1: Protein II: IgG2-Fc linked to antiangiogenesis polypeptide EDSM-Y via a flexible linker; SEQ ID NO: 17 (protein)
chain: ERKCCVECPPCPAPPVAGPSVFLFPPKPKDTLMISRTPEVTCVVVDVSHEDPEVQFNWYVDGVEVHNAKTKPREEQFNSTFRVVSVLTVVHQDWLNGKEYKCKVSNKGLPAPIEKTISKTKGQPREPQVYTLPPSREEMTKNQVSLTCLVKGFYPSDISVEWESNGQPENNYKTTPPMLDSDGSFFLYSKLTVDKSRWQQGNVFSCSVMHEALHNHYTQKSLSLSPGKGGGGSGGGGSGGGGSFQPVLHLVALNSPLSGGMRGIRGADFQCFQQARAVGLAGTFRAGGGGRGD
Area (mm^2) occupied by neovascular clusters [1]: 0.146 ± 0.011* mm^2 | Reduce (%) [1]: 30.81% | Reduce (%) ([1]; listed as protein II): 30.81% | MI (%) ([2]; dose 0.25 μg/mL): 16.12% | Migration cell number ([2]; dose 0.25 μg/mL): 2108.0 ± 75.27 | MI (%) ([2]; dose 0.5 μg/mL): 52.11% | Migration cell number ([2]; dose 0.5 μg/mL): 1203.5 ± 220.14**^ | MI (%) ([2]; dose 1 μg/mL): 73.06% | Migration cell number ([2]; dose 1 μg/mL): 677.0 ± 24.72**^ | MI (%) ([2]; dose 2 μg/mL): 77.34% | Migration cell number ([2]; dose 2 μg/mL): 569.5 ± 270.29 | MI (%) ([2]; dose 4 μg/mL): 65.86% | Migration cell number ([2]; dose 4 μg/mL): 858.0 ± 145.87 | MI (%) ([2]; dose 8 μg/mL): 29.88% | Migration cell number ([2]; dose 8 μg/mL): 1762.0 ± 183.97 | A570 nm/A630 nm ([3]; dose 1 μg/mL): 1.1122 ± 0.0374 | PI (%) ([3]; dose 1 μg/mL): 8.98% | A570 nm/A630 nm ([3]; dose 2 μg/mL): 1.0149 ± 0.0253 | PI (%) ([3]; dose 2 μg/mL): 16.94% | A570 nm/A630 nm ([3]; dose 4 μg/mL): 0.8231 ± 0.0396 | PI (%) ([3]; dose 4 μg/mL): 32.64% | A570 nm/A630 nm ([3]; dose 8 μg/mL): 0.7231 ± 0.0215 | PI (%) ([3]; dose 8 μg/mL): 40.82% | PI (%) ([3]; dose 8 μg/mL, listed as protein II): about 40% | A570 nm/A630 nm ([3]; dose 16 μg/mL): 0.5216 ± 0.0192 | PI (%) ([3]; dose 16 μg/mL): 57.31% | A570 nm/A630 nm ([3]; dose 32 μg/mL): 0.4398 ± 0.0347 | PI (%) ([3]; dose 32 μg/mL): 64.01% | A570 nm/A630 nm ([3]; dose 64 μg/mL): 0.3378 ± 0.0286 | PI (%) ([3]; dose 64 μg/mL): 72.35% | A570 nm/A630 nm ([3]; dose 128 μg/mL): 0.2203 ± 0.0147 | PI (%) ([3]; dose 128 μg/mL): 81.97% | A570 nm/A630 nm ([3]; dose 256 μg/mL): 0.0987 ± 0.0159 | PI (%) ([3]; dose 256 μg/mL): 91.92%

Reference: patent publication US11407811B2, “Fusion protein, preparation method therefor and use thereof” (JIANGSU RONGTAI BIOTECH CO., LTD., priority 2017, dated 2022)
